The numbers were not newly measured in publication PMC7788954, which cites them from elsewhere.

One may read the Kd as the equilibrium constant for the complex coming apart.

For this data set, the target named is Sans SAM-PBM (Homo sapiens) (UniProt Q495M9).
Chain of Sans SAM-PBM (Homo sapiens) (Q495M9 388-461): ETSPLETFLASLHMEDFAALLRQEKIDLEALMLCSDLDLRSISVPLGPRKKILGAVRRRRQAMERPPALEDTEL

Chain of harmonin N-terminal HHD-containing supramodule (Q9Y6N9 1-192): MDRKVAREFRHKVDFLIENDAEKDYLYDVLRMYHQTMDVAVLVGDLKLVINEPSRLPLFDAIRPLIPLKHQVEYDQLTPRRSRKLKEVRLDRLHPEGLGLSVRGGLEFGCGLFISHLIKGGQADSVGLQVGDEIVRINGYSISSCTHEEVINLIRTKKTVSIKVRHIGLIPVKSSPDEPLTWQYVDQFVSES

For “harmonin N-terminal HHD-containing supramodule (from UniProt Q9Y6N9)”, the Kd is 1 nM.
